Experimental data as given in the RNAGym collection of RNA variant scans (doi:10.1073/pnas.2313332121).
Variants at the floor of the assay were thinned out.

B1: TPR 5TU (parent)
chain: GGAUCUUCUCGAUCUAACAAAAAAGACAAAUCUGCCACAAAGCUUGAGAGCAUCUUCGGAUGCAGAGGCGGCAGCCUUCGGUGGCGCGAUAGCGCCAACGUUCUCAACUAUGACACGCAAAACGCGUGCUCCGUUGAAUGGAGUUUAUCAUG

Variants of: B1
Experiment: polymerase ribozyme fitness, log enrichment relative to wild type (log ratio); higher = more active; in vitro selection for triplet polymerase activity
Procedure, shortened: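 Mutant libraries for each subunit of a heterodimeric triplet polymerase ribozyme were made by PCR and then transcribed. Each library underwent one round of in vitro selection in triplicate: annealing with a biotinylated primer, the partner subunit and triplets, frozen incubation at −7 °C, gel excision of extended constructs, streptavidin-bead capture and RT-PCR. Input and output libraries were Illumina-sequenced, and only genotypes with ≥10 input reads and ≥1 read per output were kept. Fitness is the logarithm, base 2, of genotype enrichment over wild-type enrichment, computed from inverse-variance-weighted replicate averages.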

A41U C54A C79U G88C U148C and G11C A52G G84A G133C G141A cannot be ordered by “polymerase ribozyme fitness (log ratio)” value: at most -4.2 for the first, at most -4.2 for the second.

Compared with U15G C51A C93A G124U U145A, A17G G50C A137G U144G is lower in “polymerase ribozyme fitness (log ratio)” value: -3.28 for the first, at most -4.2 for the second.

G59A C69A G86U A89C C95G and A29C C87G G117A cannot be ordered by “polymerase ribozyme fitness (log ratio)” value: at most -4.2 for the first, at most -4.2 for the second.

Going from A23C C114G to A26C C36A U44G U55A G140C, the “polymerase ribozyme fitness (log ratio)” value rises from at most -4.2 to -4.19.

Going from C95U C123A C125U to G46U G83U, the “polymerase ribozyme fitness (log ratio)” value falls from -0.165 to -2.29.

Compared with U61A C95U, U4G A47U G58C C93G is lower in “polymerase ribozyme fitness (log ratio)” value: -0.916 for the first, -4 for the second.

Going from A12U A19G U82C G83A A119U to G25U A39U U53A C76G U145A, the “polymerase ribozyme fitness (log ratio)” value falls from -4.07 to at most -4.2.

First: A17G C57U A113C
Second: A12G A20U A23C G141U
The “polymerase ribozyme fitness (log ratio)” value of the first is higher: -3.96 for the first, at most -4.2 for the second.

First: A40U C57A G86A A110U C125A G141U
Second: A20G U56G G117C
The “polymerase ribozyme fitness (log ratio)” value of the first is lower: at most -4.2 for the first, -0.934 for the second.

A26G A91U U104G A122C and A17G A28U G71A A121G cannot be ordered by “polymerase ribozyme fitness (log ratio)” value: at most -4.2 for the first, at most -4.2 for the second.

Compared with A49C C103G A110C, G34U G141C is higher in “polymerase ribozyme fitness (log ratio)” value: at most -4.2 for the first, -2.78 for the second.

A26U G83U C95G C105A G141A U146C U151C and A22U A66C C85G cannot be ordered by “polymerase ribozyme fitness (log ratio)” value: at most -4.2 for the first, at most -4.2 for the second.

First: U13G G42A G50U C76A G86C C132A
Second: U55A G62A C87U C103U
The “polymerase ribozyme fitness (log ratio)” value of the first is lower: at most -4.2 for the first, -1.44 for the second.

Compared with C35G G68C C125A, C14A C35G G59C A64C A73G G141U is lower in “polymerase ribozyme fitness (log ratio)” value: -4.18 for the first, at most -4.2 for the second.

A91U C95G C116A G143U A147C and U7G A20U U53A G88U C96A A113U C114U A122U U139A A142U cannot be ordered by “polymerase ribozyme fitness (log ratio)” value: at most -4.2 for the first, at most -4.2 for the second.

A66U C75G U82G A106C C116U and C76G U127C A150U cannot be ordered by “polymerase ribozyme fitness (log ratio)” value: at most -4.2 for the first, at most -4.2 for the second.

Compared with C5A C51U, C10G U15G A23C G62C A97C C125U is lower in “polymerase ribozyme fitness (log ratio)” value: -0.595 for the first, at most -4.2 for the second.

Going from U82A U102G to G46U A120U, the “polymerase ribozyme fitness (log ratio)” value rises from -2.54 to -0.29.

Going from A12G A16G U44G G81C G84A C95U U144A U146C to G86A C103G C123U, the “polymerase ribozyme fitness (log ratio)” value rises from at most -4.2 to -3.36.

First: C93U C95U C131U
Second: U15A A19C A52G G83A C103G
The “polymerase ribozyme fitness (log ratio)” value of the first is higher: -0.998 for the first, -3.83 for the second.

Compared with C35A G94C, A40C C69G G80A is higher in “polymerase ribozyme fitness (log ratio)” value: -2.74 for the first, -0.716 for the second.

First: U31A A52C A91U
Second: U9C U56A G83A C87U
The “polymerase ribozyme fitness (log ratio)” value of the first is higher: -4.06 for the first, at most -4.2 for the second.

G67A G84U and C5G A39U G59U G68A A98G A115G A137G G143U cannot be ordered by “polymerase ribozyme fitness (log ratio)” value: at most -4.2 for the first, at most -4.2 for the second.

First: A37U U56C C69U
Second: C14G C87U G141A
The “polymerase ribozyme fitness (log ratio)” value of the first is lower: -2.76 for the first, -2.56 for the second.

Going from C51U C95G to A21C A110C, the “polymerase ribozyme fitness (log ratio)” value falls from -1.68 to at most -4.2.

Going from G74A G100U U104C U109G U146A to C38G G58C G84A A119U, the “polymerase ribozyme fitness (log ratio)” value rises from at most -4.2 to -0.795.

Compared with A20G C125A, A66G U77A G83U U104A G117U is lower in “polymerase ribozyme fitness (log ratio)” value: -0.707 for the first, at most -4.2 for the second.

Going from A12U G94A to C95U U102G, the “polymerase ribozyme fitness (log ratio)” value rises from -1.47 to -1.19.

G11U A66C C76U U90G U102G U148G and C8U U15G A49G G59A A60G G70A G86C C93U A106G U135C cannot be ordered by “polymerase ribozyme fitness (log ratio)” value: at most -4.2 for the first, at most -4.2 for the second.

C96G U102C A121G G141A A150G and C27G G83A A89C are within 0.2 log units of each other in “polymerase ribozyme fitness (log ratio)” value: -4.15 for the first, -3.98 for the second.

Going from U56A G152U to C18G A30U C35A U61G G62U C93U U111G G124A, the “polymerase ribozyme fitness (log ratio)” value falls from -2.37 to at most -4.2.

Compared with U61A C85A G141C, A12G U53G G59A C95G A98C U146A is higher in “polymerase ribozyme fitness (log ratio)” value: -2.36 for the first, -1.26 for the second.

Going from C38G A40G G83A to A17C A37C A52U G83U, the “polymerase ribozyme fitness (log ratio)” value rises from -3.86 to -3.08.

Compared with C57A C87G, A52G G83U U101A A115U is lower in “polymerase ribozyme fitness (log ratio)” value: -3.18 for the first, -3.39 for the second.

Going from C54A C69U U144C to C32U C85U A89C A138C, the “polymerase ribozyme fitness (log ratio)” value falls from -3.51 to at most -4.2.

Going from U55G C85U to A3G C36G U77C, the “polymerase ribozyme fitness (log ratio)” value falls from -0.188 to at most -4.2.

A47U C69U C93A A107C A115C and G81A C87U A91U G112U G143A cannot be ordered by “polymerase ribozyme fitness (log ratio)” value: at most -4.2 for the first, at most -4.2 for the second.

First: C103G U145G
Second: G42A A73G C87U
The “polymerase ribozyme fitness (log ratio)” value of the first is higher: -1.87 for the first, at most -4.2 for the second.

C38A C54U A73U and U55C G83C A115C C132U are within 0.2 log units of each other in “polymerase ribozyme fitness (log ratio)” value: -2.15 for the first, -2.06 for the second.

Going from A52C C99U to G81C A89U C96G, the “polymerase ribozyme fitness (log ratio)” value rises from -1.81 to -0.784.

Compared with A22G A52U G84A C123A, A40U G84U C85A is higher in “polymerase ribozyme fitness (log ratio)” value: -2.11 for the first, -0.755 for the second.

Going from G86U G92C to G88C C95U, the “polymerase ribozyme fitness (log ratio)” value falls from -2.75 to at most -4.2.
